Source: patent publication US10695406B2, “Modulation of cellular stress using a B-cell oxidative and/or endoplasmic reticulum stress inhibitor and a targeting agent” (THE UNIVERSITY OF QUEENSLAND, priority 2014, dated 2020)

B1: MPBS-51: IL-22-GLP-1R ligand fusion protein, sequence in FIG. 36, made by Novo Nordisk A/S (protein)
chain: EGTFTSDVSSYLEGQAAKEFIAWLVKGRGGGSSSGGGSSSGGGSSSGGGSSSGAPISSHCRLDKSNFQQPYITNRTFMLAKEASLADNNTDVRLIGEKLFHGVSMSERCYLMKQVLNFTLEEVLFPQSDRFQPYMQEWPFLARLSNRLSTCHIEGDDLHIQRNVQKLKDTVKKLGESGEIKAIGELDLLFMSLRNACIGGSHHHHHH
modifications: MPBS-51 - fusion protein comrpsing a GLP-1 ligand and IL-22
B2: MPBS-50: IL-22-GLP-1R ligand fusion protein, sequence in FIG. 36, made by Novo Nordisk A/S (protein)
chain: EGTFTSDVSSYLEGQAAKEFIAWLVKGRHGEGTFTSDVSSYLEGQAAKEFIAWLVKGRAPISSHCRLDKSNFQQPYITNRTFMLAKEASLADNNTDVRLIGEKLFHGVSMSERCYLMKQVLNFTLEEVLFPQSDRFQPYMQEVVPFLARLSNRLSTCHIEGDDLHIQRNVQKLKDTVKKLGESGEIKAIGELDLLFMSLRNACIGGSHHHHHH
modifications: MPBS-50 - fusion protein comrpsing a GLP-1 ligand and IL-22
B3: IL-10: cytokine that inhibits ER stress (protein, UniProt P22301 19-178, looked up)
Interleukin-10: SPGQGTQSENSCTHFPGNLPNMLRDLRDAFSRVKTFFQMKDQLDNLLLKESLLEDFKGYLGCQALSEMIQFYLEEVMPQAENQDPDIKAHVNSLGENLKTLRLRLRRCHRFLPCENKSKAVEQVKNAFNKLQEKGIYKAMSEFDIFINYIEAYMTMKIRN
B4: IL-22-ScaB1: IL-22-single chain antibody construct targeting a β-cell antigen; scFv-cytokine fusion protein with His- and myc-tag (protein)
chain: HHHHHHEVQLLESGGGLVQPGGSLRLSCAASGFTFSSYAMSWVRQAPGKGLEWVSSITAEGTHTWYADSVKGRFTISRDNSKNTLYLQMNSLRAEDTAVYYCAKTSYRFDYWGQGTLVTVSSGGGGSGGGGSGGGGSDIQMTQSPSSLSASVGDRVTITCRASQSISSYLNWYQQKPGKAPKLLIYKASRLQSGVPSRFSGSGSGTDFTLTISSLQPEDFATYYCQQKWDPPRTFGQGTKVEIKRSGGGGSAPISSHCRLDKSNFQQPYITNRTFMLAKEASLADNNTDVRLIGEKLFHGVSMSERCYLMKQVLNFTLEEVLFPQSDRFQPYMQEVVPFLARLSNRLSTCHIEGDDLHIQRNVQKLKDTVKKLGESGEIKAIGELDLLFMSLRNACIEQKLISEEDLN
modifications: His-ScaB1 scFv-IL22 human-myc
notes: IL-22-single chain antibody construct targeting a β-cell antigen; scFv-cytokine fusion protein with His- and myc-tag
B5: MPBS-52: IL-22-GLP-1R ligand fusion protein, sequence in FIG. 36, made by Novo Nordisk A/S (protein)
chain: DLSKQMEEEAVRLFIEWLKNGGPSSGAPPPSGGSSSGGGSSSGGGSSSGGGSSSGAPISSHCRLDKSNFQQPYITNRTFMLAKEASLADNNTDVRLIGEKLFHGVSMSERCYLMKQVLNFTLEEVLFPQSDRFQPYMQEVVPFLARLSNRLSTCHIEGDDLHIQRNVQKLKDTVKKLGESGEIKAIGELDLLFMSLRNACIGGSHHHHHH
modifications: MPBS-52 - fusion protein comrpsing a GLP-1 ligand and IL-22

Tests used:
[1] = system: Murine MIN6N8 cells; assay: ERAI-sXBP1 reporter ER stress in MIN6N8 cells with 0.5 mM palmitate; type: cell-based; settings: for ER stress caused by the protein alone: 15.4 nM, no palmitate; for protection from palmitate-induced ER stress: co-treated with 0.5 mM palmitate, increasing concentrations; for in vitro efficacy for suppression of ER and oxidative stress (conclusion): murine and human cells
Description: (§1) Cell culture: Murine MIN6N8 cells were tested negative for mycoplasma. Cells were routinely cultured in phenol-red free DMEM (Life Technologies) containing 25 mM glucose (3.4 g/L sodium bicarbonate, 50 U/mL penicillin and streptomycin, 71.5 μM β-mercaptoethanol and 10% heat inactivated fetal bovine serum) and transferred to DMEM as above with 5.5 mM glucose 48 h prior to experimentation. Human LS174T cells were cultured in DMEM containing 10% heat-inactivated fetal bovine serum, 50 U mL^−1 penicillin and streptomycin.
ER Stress Measurement: MIN6N8 cells were transfected with the ERAI reporter plasmid (F-XBP1ΔDBD-venus, using Lipofectamine 2000 according to the manufacturer's instructions. For ERAI there was negligible fluorescence in the absence of ER stressors, but upon induction of ER stress, splicing of XBP1 mRNA by IRE1a results in the translation of Venus but not an active form of XBP1. Fluorescence was measured (excitation: 485 nm; emission: 520 nm) using a POLARstar Omega plate reader and cells were treated 48 h after transfection. […] After 24 h, ERAI-sXBP1 GFP reporter fluorescence was measured.

[2] = system: Human LS174T cells; assay: Oxidative stress (nitrite, Griess assay) in LS174T cells with 0.5 mM palmitate; type: cell-based; settings: 2 h prior to 0.5 mM palmitate for 30 min
Description: as §1
The Griess Reagent Kit for Nitrite Determination was performed according to the manufacturer's instructions (Molecular Probes) to assess the intracellular levels of nitrite (the stable metabolite of nitric oxide) using lysates of β-cells prepared in RIPA buffer (150 mM NaCl, 1% NP40, 0.5% sodium deoxycholate, 0.1% SDS, 50 mM Tris, pH 7.5).

[3] = system: STAT3 phosphorylation; assay: pStat3 staining in pancreatic islets vs liver, intestine and skin; type: in vivo, C57BL/6 mice
Description: (§2) Targeting to IL-22 to pancreas: Non-obese male C57BL/6 at 6-8 weeks of age. Each IL-22-GLP-1R ligand fusion protein or hIL-22 was administered i.p. at 256 ng/g of IL-22 and the molar equivalents for the individual fusion proteins (n=3 per regimen). IL-22-ScaB1 was administered at […]. Control mice received a PBS control i.p. injection only.
To assess in vivo activation of the IL-22 receptor signaling pathway, after 30 min the mice were sacrificed and the following tissues were snap frozen and sections were prepared for each mouse: pancreas, skin (ear, tail), colon (rolled), and liver. Sections were stained by immunofluorescence for phosphorylated STAT3 using the Phospho-Stat3 (Tyr705) (D3A7) antibody.

[4] = Clearance of IL-22 and IL-22 fusion proteins from serum; type: in vivo, C57BL/6 mice; settings: 256 ng/g human IL-22 or molar equivalents, i.p.
Description: as §2
Serum concentrations of IL-22 and the IL-22-GLP-1R ligand fusion proteins were determined using a human IL-22 double-determinant ELISA (Biolegend; 434505) against a standard curve for the individual fusion proteins.

[5] = system: MIN6N8 murine β-cells; assay: ER stress (ERAI reporter of Xbp1-splicing / Xbp1 splicing) in MIN6N8 β-cells; type: cell-based; settings: pair-wise combinations of cytokines
Description: MIN6N8 cells are maintained in line with standard protocols. Cells are transfected with either the ERAI reporter plasmid (F-XBP1ΔDBD-Venus), or the ATF6-GFP plasmid (ADGENE), using LIPFECTAMINE 2000 according to the manufacturer's instructions.
On induction of ER stress, splicing of […] mRNA by IRE1a results in the translation of Venus, but not an active form of XBP1. Fluorescence was measured (excitation: 485 nm; emission: 520 nm) using the POLARstar Omega plate reader and cells were treated 48 h after transfection. The results are normalized with Gapdh expression as fold of vehicle-treated control (Con) cells.
Activation of ATF6 was assessed as follows: the area in pixels per square millimeter co-stained ATF6 and DAPI (blue and green), and total ATF6 staining (green) was determined in 5 fields of view for each section (n=6 for each condition) using IMAGEJ software version 1.45s. Data are presented as the percentage of ATF6 and DAPI co-fluorescence to the total ATF6 fluorescence. Phosphorylation of Ser-51 of eiF2 α was determined by an AlphaScreen assay as per the manufacturer's instructions (PERKIN-ELMER). The Griess reagent method was performed according to the manufacturer's instructions (MOLECULAR PROBES) to assess the intracellular levels of nitric oxide. 5-(and -6-)-carboxy-2,7-dichlorofluorescein diacetate (DCFDA) assay was used to determine the intracellular levels of H2O2 as previously described (Sakon et al., 2003). Cells were treated with glucose or recombinant cytokines at the concentrations indicated in the figure legends, or with 5 μM thapsigargin (SIGMA-ALDRICH) or 10 μg/mL tunicamycin (SIGMA-ALDRICH) or 0.1-0.5 mM Palmitate (SIGMA-ALDRICH) for the times indicated in the legends. ROS was […] using the dihydroethidium (DHE) fluorescent cell-permeable probe (SIGMA-ALDRICH). MIN6N8 cells plated at 2×10^6/mL were incubated with 3 μM DHE and subsequently treated with DMSO (control), 50 ng/mL IL-23 for 30 minutes±[…] IL-22 at the same time or 30 minutes prior to IL-23.
To inhibit transcription factors the following specific inhibitors (and concentrations) were used:
MIN6N8 cells were exposed to a panel of cytokines to determine the effect of each cytokine on ER stress. ER stress was measured using the above-described method. Specifically, the cells were exposed to either a 24 hour treatment of any one of […] glucose (hi glucose), 10 μM H2O2, 0.5 mM palmitic acid or 50 ng/mL cytokines; or a 6 hour treatment with 10 μg/mL tunicamycin or 5 μM thapsigargin.
Experiments to assess ER and/or oxidative stress, and methods of qRT-PCT and/or quantifying gene expression were performed as described for Example 1. Xbp1 splicing is assessed by qRT-PCR, with normalization versus Gapdh, and expression presented as fold of vehicle-treated control cells.

[6] = molar equivalent of 256 ng/g IL-22, 30 min

Molecule | ER stress caused by the protein alone ([1]; 24 hours) | protection from palmitate-induced ER stress ([1]; 24 hours) | in vitro efficacy for suppression of ER and oxidative stress (conclusion) [1] | protection from palmitate-induced oxidative stress (nitrite production) [2] | STAT3 phosphorylation in tissues in vivo ([3]; 30 min after administration) | pStat3 ratio pancreatic islets vs intestine, fold change relative to human IL-22 [3, 6] | pStat3 ratio pancreatic islets vs liver, fold change relative to human IL-22 [3, 6] | pStat3 ratio pancreatic islets vs skin, fold change relative to human IL-22 [3, 6] | clearance / serum concentration over the first 2 hours [4] | inhibition of ER stress initiated by cytokines or tunicamycin [5] | potency compared to the native human IL-22 in reducing ER stress ([1]; 0.5 mM palmitate, 24 hours) | pStat3 ratio pancreatic islets vs liver, skin or intestine relative to human IL-22 ([3]; 0.96 nmoles/g, 30 min) | pStat3 ratio pancreatic islets vs intestine, fold change relative to human IL-22 ([3]; 15.4 nmoles/g, 30 min) | pStat3 ratio pancreatic islets vs liver, fold change relative to human IL-22 ([3]; 15.4 nmoles/g, 30 min) | pStat3 ratio pancreatic islets vs skin, fold change relative to human IL-22 ([3]; 15.4 nmoles/g, 30 min)
B1 | did not cause ER stress | did not effectively suppress ER stress at any of the concentrations tested | appears inactive in-vitro | did not effectively suppress oxidative stress at any of the concentrations tested | did induce STAT3 phosphorylation in the pancreas as well as liver and gut | not greater than for native human IL-22 | not greater than for native human IL-22 | 113 fold | lower and somewhat more extended/later peak concentration |  |  |  |  |  | 
B2 | did not cause ER stress | inhibited ER stress in a dose dependent manner at a similar efficacy to a molar equivalent concentration of human IL-22 | have retained in vitro efficacy | inhibited oxidative stress (nitrite production) but only toward the highest end of the concentration range used |  | not greater than for native human IL-22 | not greater than for native human IL-22 | 45 fold | cleared with similar kinetics to recombinant human IL-22 |  |  |  |  |  | 
B3 |  |  |  |  |  |  |  |  |  | inhibit ER stress |  |  |  |  | 
B4 | did not cause ER stress | reduced ER stress induced by palmitate |  |  |  |  |  |  |  |  | < 50% | not greater than for native human IL-22 | 420 fold | 120 fold | 110 fold
B5 | did not cause ER stress | effectively suppressed ER stress | have retained in vitro efficacy | effectively suppressed oxidative stress with a similar efficacy to equivalent molar concentrations of human IL-22 |  | 338 fold | 396 fold | 4,840 fold | lower and somewhat more extended/later peak concentration |  |  |  |  |  | 
